Test results as given in patent EP4713368A1 (dated 2026).

Tests used:
human CD28 [1] = target: T1, human CD28 (human, UniProt P10747 19-152, limits assumed); test: selection from yeast-presented libraries of heavy chains and CD3-binding light chains
T1 construct: also called Cluster of Differentiation 28; Tp44

human CD28 [2] = target: T1, human CD28; test: selection from yeast-presented heavy chain-only libraries (HCAb format)
human CD28 [3] = target: T1, human CD28; test: affinity maturation of CD28-binding antibodies (Example 10: Discovery of Additional Antibodies that Bind to CD28)
human CD28 [4] = target: T1, human CD28; test: selection from yeast-presented synthetic human antibody libraries

Row | binding result (human CD28 [3]) | Binder | further results
1 |  | Ab No. 61 (antibody, V domains shown, IgG format) VH: EVQLLESGGGLVQPGGSLRLSCAASGFTFDHYAMSWVRQAPGKGLEWVSAISASGDETYYADSVKGRFTISRDNSKNTLYLQMNSLRAEDTAVYYCARDSPHMATYKSYYYYGMDVWGQGTTVTVSS VL: DIVMTQSPDSLAVSLGERATINCKSSQSLLNARTGKNYLAWYQQKPGQPPKLLIYWASTRESGVPDRFSGSGSGTDFTLTISSLQAEDVAVYYCKQSYSLRTFGGGTKVEIK | binding result (human CD28 [1]): binds
2 |  | Ab No. 68 (antibody, V domains shown, IgG format) VH: EVQLVESGGGLVQPGGSLRLSCAASGFTFQSYAMNWVRQAPGKGLEWVSYISDDASTIYYADSVKGRFTISRDNAKNSLYLQMNSLRAEDTAVYYCAREVHRGWGAFDIWGQGTMVTVSS VL: DIVMTQSPDSLAVSLGERATINCKSSQSLLNARTGKNYLAWYQQKPGQPPKLLIYWASTRESGVPDRFSGSGSGTDFTLTISSLQAEDVAVYYCKQSYSLRTFGGGTKVEIK | binding result (human CD28 [1]): binds
3 |  | Ab No. 60 (antibody, V domains shown, IgG format; also called ADI-83102) VH: EVQLLESGGGLVQPGGSLRLSCAASGFTFDNYAMSWVRQAPGKGLEWVSAISADAGQTYYADSVKGRFTISRDNSKNTLYLQMNSLRAEDTAVYYCARDSPHMATYKSYYYYGMDVWGQGTTVTVSS VL: DIVMTQSPDSLAVSLGERATINCKSSQSLLNARTGKNYLAWYQQKPGQPPKLLIYWASTRESGVPDRFSGSGSGTDFTLTISSLQAEDVAVYYCKQSYSLRTFGGGTKVEIK | binding result (human CD28 [1]): binds
4 |  | Ab No. 78 (antibody, V domains shown, HCAb format (dimer of VH-hinge-CH2-CH3, no VL, CL or CH1)) VH: EVQLLESGGGLVQPGGSLRLSCAASGFTFDTYSMNWFRQAPGKERELVSAISGVGSTYYADSVKGRFTISRDNSKNTLYLQMNSLRAEDTAVYYCHARGFRLGYDFDYYWGQGTQVTVSS | binding result (human CD28 [2]): binds
5 | binds | Ab No. 21a (antibody, V domains shown, derived from Ab No. 21 by modifying VH CDRs, VL unchanged; IgG format) VH: QVQLVQSGAEVKKPGSSVKVSCKASGGTFNAYAISWVRQAPGQGLEWMGGIIPISGTAAYAQKFQGRVTITADESTSTAYMELSSLRSEDTAVYYCTRDLGFGAIRDTWGQGTLVTVSS VL: EIVLTQSPATLSLSPGERATLSCRASQSVSSYLAWFQQKPGQAPRLLIYDASNRATGIPARFSGSGSGTDFTLTISSLEPEDFAVYYCQQSLNLPITFGGGTKVEIK | 
6 | binds | Ab No. 21f (antibody, V domains shown, derived from Ab No. 21 by modifying VH CDRs, VL unchanged; IgG format) VH: QVQLVQSGAEVKKPGSSVKVSCKASGGTFGGYAISWVRQAPGQGLEWMGGIIPISATAFYAQKFQGRVTITADESTSTAYMELSSLRSEDTAVYYCTRDLGFGAIRDTWGQGTLVTVSS VL: EIVLTQSPATLSLSPGERATLSCRASQSVSSYLAWFQQKPGQAPRLLIYDASNRATGIPARFSGSGSGTDFTLTISSLEPEDFAVYYCQQSLNLPITFGGGTKVEIK | 
7 | binds | Ab No. 21b (antibody, V domains shown, derived from Ab No. 21 by modifying VH CDRs, VL unchanged; IgG format) VH: QVQLVQSGAEVKKPGSSVKVSCKASGGTFNAYAISWVRQAPGQGLEWMGGIIPISGTANYAQKFQGRVTITADESTSTAYMELSSLRSEDTAVYYCTRDLGFGAIRDTWGQGTLVTVSS VL: EIVLTQSPATLSLSPGERATLSCRASQSVSSYLAWFQQKPGQAPRLLIYDASNRATGIPARFSGSGSGTDFTLTISSLEPEDFAVYYCQQSLNLPITFGGGTKVEIK | 
8 | binds | Ab No. 21e (antibody, V domains shown, derived from Ab No. 21 by modifying VH CDRs, VL unchanged; IgG format) VH: QVQLVQSGAEVKKPGSSVKVSCKASGGTFDNYAISWVRQAPGQGLEWMGGIIPISGTAIYAQKFQGRVTITADESTSTAYMELSSLRSEDTAVYYCTRDLGFGAIRDTWGQGTLVTVSS VL: EIVLTQSPATLSLSPGERATLSCRASQSVSSYLAWFQQKPGQAPRLLIYDASNRATGIPARFSGSGSGTDFTLTISSLEPEDFAVYYCQQSLNLPITFGGGTKVEIK | 
9 | binds | Ab No. 21d (antibody, V domains shown, derived from Ab No. 21 by modifying VH CDRs, VL unchanged; IgG format) VH: QVQLVQSGAEVKKPGSSVKVSCKASGGTFSTYAISWVRQAPGQGLEWMGGIIPISGTANYAQKFQGRVTITADESTSTAYMELSSLRSEDTAVYYCTRDLGFGAIRDTWGQGTLVTVSS VL: EIVLTQSPATLSLSPGERATLSCRASQSVSSYLAWFQQKPGQAPRLLIYDASNRATGIPARFSGSGSGTDFTLTISSLEPEDFAVYYCQQSLNLPITFGGGTKVEIK | 
10 | binds | Ab No. 21c (antibody, V domains shown, derived from Ab No. 21 by modifying VH CDRs, VL unchanged; IgG format) VH: QVQLVQSGAEVKKPGSSVKVSCKASGGTFSGYAISWVRQAPGQGLEWMGGIIPISATANYAQKFQGRVTITADESTSTAYMELSSLRSEDTAVYYCTRDLGFGAIRDTWGQGTLVTVSS VL: EIVLTQSPATLSLSPGERATLSCRASQSVSSYLAWFQQKPGQAPRLLIYDASNRATGIPARFSGSGSGTDFTLTISSLEPEDFAVYYCQQSLNLPITFGGGTKVEIK | 
11 |  | Ab No. 70 (antibody, V domains shown, HCAb format (dimer of VH-hinge-CH2-CH3, no VL, CL or CH1)) VH: EVQLLESGGGLVQPGGSLRLSCAASGFTFSDYAMSWVRQAPGKERELVSIISASGGTTYYAGSVKGRFTISRDNSKNTLYLQMNSLRAEDTAVYYCAAHASGSYYLDASRDYDADYWGQGTQVTVSS | binding result (human CD28 [2]): binds
12 | binds | Ab No. 28a (antibody, V domains shown, derived from Ab No. 28 by modifying VH CDRs, VL unchanged; IgG format) VH: EVQLLESGGGLVQPGGSLRLSCAASGFTFGSYAMHWVRQAPGKGLEWVSAISGSGQSTDYADSVKGRFTISRDNSKNTLYLQMNSLRAEDTAVYYCVRGYRLVGILTGSHFDYWGQGTLVTVSS VL: DIQMTQSPSTLSASVGDRVTITCRASQSIGSWLAWYQQKPGKAPKLLIYKASSLESGVPSRFSGSGSGTEFTLTISSLQPDDFATYYCQQYNILPPTFGGGTKVEIK | 
13 | binds | Ab No. 28c (antibody, V domains shown, derived from Ab No. 28 by modifying VH CDRs, VL unchanged; IgG format) VH: EVQLLESGGGLVQPGGSLRLSCAASGFPFSAYGMSWVRQAPGKGLEWVSAISGSGGNTDYADSVKGRFTISRDNSKNTLYLQMNSLRAEDTAVYYCVRGYRLVGILTGSHFDYWGQGTLVTVSS VL: DIQMTQSPSTLSASVGDRVTITCRASQSIGSWLAWYQQKPGKAPKLLIYKASSLESGVPSRFSGSGSGTEFTLTISSLQPDDFATYYCQQYNILPPTFGGGTKVEIK | 
14 | binds | Ab No. 28e (antibody, V domains shown, derived from Ab No. 28 by modifying VH CDRs, VL unchanged; IgG format) VH: EVQLLESGGGLVQPGGSLRLSCAASGFTFGRYAMSWVRQAPGKGLEWVSAISGDAGSTFYADSVKGRFTISRDNSKNTLYLQMNSLRAEDTAVYYCVRGYRLVGILTGSHFDYWGQGTLVTVSS VL: DIQMTQSPSTLSASVGDRVTITCRASQSIGSWLAWYQQKPGKAPKLLIYKASSLESGVPSRFSGSGSGTEFTLTISSLQPDDFATYYCQQYNILPPTFGGGTKVEIK | 
15 | binds | Ab No. 28d (antibody, V domains shown, derived from Ab No. 28 by modifying VH CDRs, VL unchanged; IgG format) VH: EVQLLESGGGLVQPGGSLRLSCAASGFTFDAYAMSWVRQAPGKGLEWVSAISGSGVRTYYADSVKGRFTISRDNSKNTLYLQMNSLRAEDTAVYYCVRGYRLVGILTGSHFDYWGQGTLVTVSS VL: DIQMTQSPSTLSASVGDRVTITCRASQSIGSWLAWYQQKPGKAPKLLIYKASSLESGVPSRFSGSGSGTEFTLTISSLQPDDFATYYCQQYNILPPTFGGGTKVEIK | 
16 | binds | Ab No. 28b (antibody, V domains shown, derived from Ab No. 28 by modifying VH CDRs, VL unchanged; IgG format) VH: EVQLLESGGGLVQPGGSLRLSCAASGFTFSKYQMSWVRQAPGKGLEWVSAISGTGESTDYADSVKGRFTISRDNSKNTLYLQMNSLRAEDTAVYYCVRGYRLVGILTGSHFDYWGQGTLVTVSS VL: DIQMTQSPSTLSASVGDRVTITCRASQSIGSWLAWYQQKPGKAPKLLIYKASSLESGVPSRFSGSGSGTEFTLTISSLQPDDFATYYCQQYNILPPTFGGGTKVEIK | 
17 | binds | Ab No. 28f (antibody, V domains shown, derived from Ab No. 28 by modifying VH CDRs, VL unchanged; IgG format) VH: EVQLLESGGGLVQPGGSLRLSCAASGFTFSTYGMNWVRQAPGKGLEWVSAISGSGLNTYYADSVKGRFTISRDNSKNTLYLQMNSLRAEDTAVYYCVRGYRLVGILTGSHFDYWGQGTLVTVSS VL: DIQMTQSPSTLSASVGDRVTITCRASQSIGSWLAWYQQKPGKAPKLLIYKASSLESGVPSRFSGSGSGTEFTLTISSLQPDDFATYYCQQYNILPPTFGGGTKVEIK | 
18 |  | Ab No. 57 (antibody, V domains shown, IgG format) VH: QVQLQESGPGLVKPSETLSLTCTVSGGSISSYYWSWIRQPPGKGLEWIGSIYYSGSTNYNPSLKSRVTISVDTSKNQFSLKLSSVTAADTAVYYCARTEVGATRPREDFQHWGQGTLVTVSS VL: QSVLTQPPSVSAAPGQKVTISCSGSSSNIGNNYVSWYQQLPGTAPKLLIYDNNKRPSGIPDRFSGSKSGTSATLGITGLQTGDEADYYCGTWDISLGWVFGGGTKLTVL | binding result (human CD28 [4]): binds
19 |  | Ab No. 8 (antibody, V domains shown, IgG format) VH: QVQLVQSGAEVKKPGSSVKVSCKASGGTFSSYAISWVRQAPGQGLEWMGGIIPISGTANYAQKFQGRVTITADESTSTAYMELSSLRSEDTAVYYCAKTRTVAYPGSDWGQGTLVTVSS VL: not shown | binding result (human CD28 [4]): binds
20 |  | Ab No. 5 (antibody, V domains shown, IgG format) VH: QVQLVQSGAEVKKPGSSVKVSCKASGGTFSSYAISWVRQAPGQGLEWMGGIIPISGTANYAQKFQGRVTITADESTSTAYMELSSLRSEDTAVYYCAKGGFGAPLPTWGQGTLVTVSS VL: DIQLTQSPSSVSASVGDRVTITCRASQDISSWLAWYQQKPGKAPKLLIYAASSLQSGVPSRFSGSGSGTDFTLTISSLQPEDFATYYCQQGNAHPFTFGGGTKVEIK | binding result (human CD28 [4]): binds
21 |  | Ab No. 7 (antibody, V domains shown, IgG format) VH: QVQLVQSGAEVKKPGSSVKVSCKASGGTFSSYAISWVRQAPGQGLEWMGGIIPISGTANYAQKFQGRVTITADESTSTAYMELSSLRSEDTAVYYCAKGGFGAPLPTWGQGTLVTVSS VL: DIQMTQSPSSLSASVGDRVTITCRASQSISSYLNWYQQKPGKAPKLLIYSASSLQSGVPSRFSGSGSGTDFTLTISSLQPEDFATYYCQQGSSVPFTFGGGTKVEIK | binding result (human CD28 [4]): binds
22 |  | Ab No. 9 (antibody, V domains shown, IgG format) VH: QVQLVQSGAEVKKPGSSVKVSCKASGGTFSSYAISWVRQAPGQGLEWMGGIIPISGTANYAQKFQGRVTITADESTSTAYMELSSLRSEDTAVYYCALGRWLTEAQWGQGTLVTVSS VL: not shown | binding result (human CD28 [4]): binds
